The results in this text go back to patent US7300651.

This experiment has as its target anti-idiotype antibody 3H1. The experiment in a line: Ab1-Ab2 binding inhibition assays; competitor 8019.

Sequence of anti-idiotype antibody 3H1 (VL, as listed by the source, chain 1 of 2): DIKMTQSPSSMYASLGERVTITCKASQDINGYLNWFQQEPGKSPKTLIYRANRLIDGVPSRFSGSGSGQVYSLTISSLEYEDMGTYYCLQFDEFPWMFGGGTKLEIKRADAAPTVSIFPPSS
Sequence of anti-idiotype antibody 3H1 (VH, as listed by the source, chain 2 of 2): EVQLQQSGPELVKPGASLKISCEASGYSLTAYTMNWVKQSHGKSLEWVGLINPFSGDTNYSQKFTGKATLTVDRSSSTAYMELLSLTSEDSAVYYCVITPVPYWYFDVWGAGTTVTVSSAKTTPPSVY

As a reminder, the inhibition is the drop in the measured response relative to a control, in per cent. Read a high inhibition as a response far below the control. On to control normal serum pool (antibody), for which the inhibition fell in the range of 10 to 15%.
